Patent US20090226946

Target: T1, S5a, P55036
T1 chain: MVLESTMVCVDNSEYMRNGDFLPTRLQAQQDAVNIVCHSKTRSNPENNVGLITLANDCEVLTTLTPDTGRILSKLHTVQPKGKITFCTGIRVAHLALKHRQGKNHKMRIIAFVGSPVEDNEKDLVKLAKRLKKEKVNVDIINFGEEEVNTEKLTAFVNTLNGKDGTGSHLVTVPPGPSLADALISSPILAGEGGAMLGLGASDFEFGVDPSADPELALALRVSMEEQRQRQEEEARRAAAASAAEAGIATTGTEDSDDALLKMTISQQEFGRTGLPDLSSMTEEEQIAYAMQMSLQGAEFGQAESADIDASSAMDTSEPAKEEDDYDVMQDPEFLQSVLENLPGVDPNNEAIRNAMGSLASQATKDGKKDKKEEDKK

B1: GST-Nedd4 (protein)
chain: MATCAVEVFGLLEDEENSRIVRVRVIAGIGLAKKDILGASDPYVRVTLYDPMNGVLTSVQTKTIKKSLNPKWNEEILFRVHPQQHRLLFEVFDENRLTRDDFLGQVDVPLYPLPTENPRLERPYTFKDFVLHPRSHKSRVKGYLRLKMTYLPKTSGSEDDNAEQAEELEPGWVVLDQPDAACHLQQQQEPSPLPPGWEERQDILGRTYYVNHESRRTQWKRPTPQDNLTDAENGNIQLQAQRAFTTRRQISEETESVDNRESSENWEIIREDEATMYSNQAFPSPPPSSNLDVPTHLAEELNARLTIFGNSAVSQPASSSNHSSRRGSLQAYTFEEQPTLPVLLPTSSGLPPGWEEKQDERGRSYYVDHNSRTTTWTKPTVQATVETSQLTSSQSSAGPQSQASTSDSGQQVTQPSEIEQGFLPKGWEVRHAPNGRPFFIDHNTKTTTWEDPRLKIPAHLRGKTSLDTSNDLGPLPPGWEERTHTDGRIFYINHNIKRTQWEDPRLENVAITGPAVPYSRDYKRKYEFFRRKLKKQNDIPNKFEMKLRRATVLEDSYRRIMGVKRADFLKARLWIEFDGEKGLDYGGVAREWFFLISKEMFNPYYGLFEYSATDNYTLQINPNSGLCNEDHLSYFKFIGRVAGMAVYHGKLLDGFFIRPFYKMMLHKPITLHDMESVDSEYYNSLRWILENDPTELDLRFIIDEELFGQTHQHELKNGGSEIVVTNKNKKEYIYLVIQWRFVNRIQKQMAAFKEGFFELIPQDLIKIFDENELELLMCGLGDVDVNDWREHTKYKNGYSANHQVIQWFWKAVLMMDSEKRIRLLQFVTGTSRVPMNGFAELYGSNGPQSFTVEQWGTPEKLPRAHTCFNRLDLPPYESFEELWDKLQMAIENTQGFDGVD
Ubiquitinated S5a? (in vitro ubiquitination assay, Western blot with anti-S5a): Yes

B2: GST-E6AP (protein)
chain: MEKLHQCYWKSGEPQSDDIEASRMKRAAAKHLIERYYHQLTEGCGNEACTNEFCASCPTFLRMDNNAAAIKALELYKINAKLCDPHPSKKGASSAYLENSKGAPNNSCSEIKMNKKGARIDFKDVTYLTEEKVYEILELCREREDYSPLIRVIGRVFSSAEALVQSFRKVKQHTKEELKSLQAKDEDKDEDEKEKAACSAAAMEEDSEASSSRIGDSSQGDNNLQKLGPDDVSVDIDAIRRVYTRLLSNEKIETAFLNALVYLSPNVECDLTYHNVYSRDPNYLNLFIIVMENRNLHSPEYLEMALPLFCKAMSKLPLAAQGKLIRLWSKYNADQIRRMMETFQQLITYKVISNEFNSRNLVNDDDAIVAASKCLKMVYYANVVGGEVDTNHNEEDDEEPIPESSELTLQELLGEERRNKKGPRVDPLETELGVKTLDCRKPLIPFEEFINEPLNEVLEMDKDYTFFKVETENKFSFMTCPFILNAVTKNLGLYYDNRIRMYSERRITVLYSLVQGQQLNPYLRLKVRRDHIIDDALVRLEMIAMENPADLKKQLYVEFEGEQGVDEGGVSKEFFQLVVEEIFNPDIGMFTYDESTKLFWFNPSSFETEGQFTLIGIVLGLAIYNNCILDVHFPMVVYRKLMGKKGTFRDLGDSHPVLYQSLKDLLEYEGNVEDDMMITFQISQTDLFGNPMMYDLKENGDKIPITNENRKEFVNLYSDYILNKSVEKQFKAFRRGFHMVTNESPLKYLFRPEEIELLICGSRNLDFQALEETTEYDGGYTRDSVLIREFWEIVHSFTDEQKRLFLQFTTGTDRAPVGGLGKLKMIIAKNGPDTERLPTSHTCFNVLLLPEYSSKEKLKERLLKAITYAKGFGML
Ubiquitinated S5a? (in vitro ubiquitination assay, Western blot with anti-S5a): Yes

B3: GST-Murf1 (protein)
chain: MDYKSSLIQDGNPMENLEKQLICPICLEMFTKPVVILPCQHNLCRKCANDIFQAANPYWTSRGSSVSMSGGRFRCPTCRHEVIMDRHGVYGLQRNLLVENIIDIYKQECSSRPLQKGSHPMCKEHEDEKINIYCLTCEVPTCSMCKVFGIHKACEVAPLQSVFQGQKTELNNCISMLVAGNDRVQTIITQLEDSRRVTKENSHQVKEELSQKFDTLYAILDEKKSELLQRITQEQEKKLSFIEALIQQYQEQLDKSTKLVETAIQSLDEPGGATFLLTAKQLIKSIVEASKGCQLGKTEQGFENMDFFTLDLEHIADALRAIDFGTDEEEEEFIEEEDQEEEESTEGKEEGHQ
Ubiquitinated S5a? (in vitro ubiquitination assay, Western blot with anti-S5a): Yes

B4: His-CHIP (protein)
chain: MKGKEEKEGGARLGAGGGSPEKSPSAQELKEQGNRLFVGRKYPEAAACYGRAITRNPLVAVYYTNRALCYLKMQQHEQALADCRRALELDGQSVKAHFFLGQCQLEMESYDEAIANLQRAYSLAKEQRLNFGDDIPSALRIAKKKRWNSIEERRIHQESELHSYLSRLIAAERERELEECQRNHEGDEDDSHVRAQQACIEAKHDKYMADMDELFSQVDEKRKKRDIPDYLCGKISFELMREPCITPSGITYDRKDIEEHLQRVGHFDPVTRSPLTQEQLIPNLAMKEVIDAFISENGWVEDY
Ubiquitinated S5a? (in vitro ubiquitination assay, Western blot with anti-S5a): Yes

B5: GST-Siah2 (protein)
chain: MSRPSSTGPSANKPCSKQPPPQPQHTPSPAAPPAAATISAAGPGSSAVPAAAAVISGPGGGGGAGPVSPQHHELTSLFECPVCFDYVLPPILQCQAGHLVCNQCRQKLSCCPTCRGALTPSIRNLAMEKVASAVLFPCKYATTGCSLTLHHTEKPEHEDICEYRPYSCPCPGASCKWQGSLEAVMSHLMHAHKSITTLQGEDIVFLATDINLPGAVDWVMMQSCFGHHFMLVLEKQEKYEGHQQFFAIVLLIGTRKQAENFAYRLELNGNRRRLTWEATPRSIHDGVAAAIMNSDCLVFDTAIAHLFADNGNLGINVTISTCCP
Ubiquitinated S5a? (in vitro ubiquitination assay, Western blot with anti-S5a): Yes (low)
